Test results published in patent publication US20190359693A1.

Biological target: hemagglutinin (HA) of influenza virus H3N? A/Env/MPJ193/09 (influenza A virus)
Assay: cell-based or functional assay

B1: MD2407 (bispecific antibody)
chain: EVQLVESGGGLVQPGGSLRLSCAVSISIFDIYAMDWYRQAPGKQRDLVATSFRDGSTNYADSVKGRFTISRDNAKNTLYLQMNSLKPEDTAVYLCHVSLYRDPLGVAGGMGVYWGKGALVTVSSGGGGSGGGGSEVQLVESGGGLVQAGGSLKLSCAASGRTYAMGWFRQAPGKEREFVAHINALGTRTYYSDSVKGRFTISRDNAKNTEYLEMNNLKPEDTAVYYCTAQGQWRAAPVAVAAEYEFWGQGTQVTVSSGGGGSGGGGSEVQLVESGGGLVQPGGSLRLSCAATGFTLENKAIGWFRQTPGSEREGVLCISKSGSWTYYTDSMRGRFTISRDNAENTVYLQMDSLKPEDTAVYYCATTTAGGGLCWDGTTFSRLASSWGQGTQVTVSSGGGGSGGGGSEVQLVESGGGLVQPGGSLKLSCAASGFTFSTSWMYWLRQAPGKGLEWVSVINTDGGTYYADSVKDRFTISRDNAKDTLYLQMSSLKSEDTAVYYCAKDWGGPEPTRGQGTQVTVSS
average neutralization titer: 24.5 nM
